Reference: patent publication US10202443 (UNIVERSIT LAVAL, dated 2019)

Target: T1, TDP-43 1-206 amino acid fragment, containing the RRM1 domain (Homo sapiens (Human), UniProt Q13148 1-206)
T1 construct: Spotted on membranes for the dot blot; also called amino acids 1-206 of TDP-43
Assay: dot blot, scFv-conditioned medium, anti-myc HRP
Description: Example 6: Anti-TDP-43 Antibodies Having an scFv Format Detect TDP-43 RRM1 Domain Different concentrations of TDP-43 1-206 amino acid fragment, containing the RRM1 domain were loaded onto membranes by dot blot. Membranes were incubated overnight with media from Hek293 cells that had been transfected with pScFv9 expression plasmid containing the nucleic acids encoding E6_VH1Vk9 and E6_VH7Vk9. The myc signal was detected using anti-myc HRP antibody incubation.

T1 sequence (Q13148 1-206): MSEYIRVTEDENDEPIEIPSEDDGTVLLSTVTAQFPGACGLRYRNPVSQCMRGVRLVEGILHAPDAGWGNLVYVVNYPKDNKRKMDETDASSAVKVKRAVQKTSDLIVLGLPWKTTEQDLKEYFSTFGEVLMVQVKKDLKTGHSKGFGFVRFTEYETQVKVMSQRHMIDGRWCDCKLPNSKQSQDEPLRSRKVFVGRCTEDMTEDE

binding result	Binder
binds	E6_VH1Vκ9 scFv antibody (scFv, The signal is left out here; Used as conditioned medium or inside transfected cells; also called E6_VH1Vk9; VH1Vk9) scFv: LQESGGGLVQPGGSMKLSCVASGFTSSNYWLNWVRQSPERGLEWVAEIRLKSNNYATNYAESVKGRFTISRDDSKSSVYLQVNNLRAEDTGIYYCTRSTARATPYYFDYWGQGTTVTVSSGGGGSGGGGSGGGGSDIELTQSPSSLAVSAGEKVTMSCKSSQSLLNSRARKNFLTWYQQKPGQSPKLLIYWASTRESGVPDRFTGSGSGTDFTLTISSVQAEDLAVYYCKQSYNLYTFGGGTKLEEQKLISEEDLN
binds	E6_VH7Vκ9 scFv antibody (scFv, The signal is left out here; It differs from E6_VH1Vκ9 by one residue (Q instead of E); also called E6_VH7Vk9; VH7Vk9) scFv: LQQSGGGLVQPGGSMKLSCVASGFTSSNYWLNWVRQSPERGLEWVAEIRLKSNNYATNYAESVKGRFTISRDDSKSSVYLQVNNLRAEDTGIYYCTRSTARATPYYFDYWGQGTTVTVSSGGGGSGGGGSGGGGSDIELTQSPSSLAVSAGEKVTMSCKSSQSLLNSRARKNFLTWYQQKPGQSPKLLIYWASTRESGVPDRFTGSGSGTDFTLTISSVQAEDLAVYYCKQSYNLYTFGGGTKLEEQKLISEEDLN
